From patent US20190330315A1 (IMAGO PHARMACEUTICALS, published 2019)
Where no end group is shown, it is not given here.

Target: T1, Peptide 2: α-synuclein amino acids 108-117 (10 amino acids) PQEGILEDMP (human, also: biotin, position not given here)
T1 construct: Biotinylated peptide loaded on streptavidin biosensors
T1 peptide: PQEGILEDMP
Test: BLI (ForteBio Octet Red96), biotinylated peptide on streptavidin biosensors, IGP101 at multiple concentrations
Method: The binding of IGP101 to two biotinylated α-synuclein peptides (SEQ ID NO:10 and SEQ ID NO:11) was determined using the Streptavidin biosensors. Biotinylated peptides were loaded at 5 μg/ml for 700 seconds, 300 seconds for baseline recording and then IGP101 association and dissociation measured for 600 seconds each at multiple concentrations. Double reference sensors were employed in all testing to measure and subtract any observed background signal from nonspecific binding or system noise.
Analysis was performed with ForteBio Data Analysis Software (v8.2). After background subtraction, a 1:1 local kinetic model was fit to the observed association and dissociation curves. Overall KD, Kₒₙ, Koff, and R2 correlation coefficients were determined. Where possible, a global curve fit was also performed for multiple concentrations of the antibody/analyte.

B1: IGP101 (antibody, V domains shown)
VH: EVQLVESGGGLVQPKGTLKLSCAASGFSFNTYAMNWVRQAPGKSLEWVARTLSKSNNYATYYADSVKDRFTISRDDSQSMLSLQMNNLKTEDTAMYYCVGAFAYWGQGTLVTVSA
VL: DIVMTQAAPSVPVTPGESVSISCRSSKSLLHSNGNTYLYWFLQRPGQSPQLLIYRMSNLASGVPDRFSGSGSGTAFTLRISRVEAEDVGVYYCMQHLEFPFTFGAGTKLELK
notes: Mouse monoclonal antibody from hybridoma ATCC PTA-9197; It was tested as whole mouse IgG, captured on anti-mouse IgG biosensors; The constant regions and isotype are not explicitly stated; a g2b constant region primer is mentioned only in illustrative cloning methods; also called IGP101 antibody; mouse monoclonal antibody IGP101
B1: no binding.
